Experiments:
[1] = molecular target: C5b-8 initiator complex, comprised of C5b6 in complex with C7 and C8 (human) (UniProt P01031); test: rapid atomic force microscopy imaging; supported bilayers of E. coli lipid extract on mica; proteins injected one after the other in situ without wash steps, 80 nM C5b6, C7 and C8, 1.4 µM C9; 30 °C; 6.5 s per frame; 20 mM HEPES, 120 mM NaCl, pH 7.4; chamber passivated with BSA
[2] = molecular target: C5b-8(C9)n (1 ≤ n < 18) (human) (UniProt P01031); test: as above

Sequence of C9 (P02748 22-559): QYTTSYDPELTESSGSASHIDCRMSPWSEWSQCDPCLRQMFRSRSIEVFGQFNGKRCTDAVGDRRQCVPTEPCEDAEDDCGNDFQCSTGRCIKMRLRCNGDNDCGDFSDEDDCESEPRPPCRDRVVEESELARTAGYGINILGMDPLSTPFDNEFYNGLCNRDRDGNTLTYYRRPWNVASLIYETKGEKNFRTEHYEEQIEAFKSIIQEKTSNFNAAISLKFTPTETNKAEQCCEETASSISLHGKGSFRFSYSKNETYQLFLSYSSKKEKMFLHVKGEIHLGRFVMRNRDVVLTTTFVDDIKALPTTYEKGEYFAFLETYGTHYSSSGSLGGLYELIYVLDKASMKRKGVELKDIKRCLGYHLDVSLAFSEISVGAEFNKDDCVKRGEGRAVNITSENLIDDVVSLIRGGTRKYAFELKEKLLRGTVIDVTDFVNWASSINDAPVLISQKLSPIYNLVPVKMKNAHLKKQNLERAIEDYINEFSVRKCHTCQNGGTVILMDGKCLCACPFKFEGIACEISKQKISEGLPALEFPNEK

characteristic initiation time τ init [1]: 912 s
kon [1]: 780 M⁻¹ s⁻¹
kon [2]: 108000 M⁻¹ s⁻¹
τ olig, time to add 17 copies of C9 after the initiation event [2]: 112 s
τ+, average time per addition of each of the remaining 17 C9 subunits [2]: 6.6 s
Substance: C9 (from UniProt P02748 22-559) (natural protein)

Reference: article PMC6502846
